Patent publication US20210388087A1

Molecular target: Human CD137 ECD (human)
Experiment: SPR, vs parent H183/L072

Sequence of Human CD137 ECD (human) (chain, as listed by the source limits assumed): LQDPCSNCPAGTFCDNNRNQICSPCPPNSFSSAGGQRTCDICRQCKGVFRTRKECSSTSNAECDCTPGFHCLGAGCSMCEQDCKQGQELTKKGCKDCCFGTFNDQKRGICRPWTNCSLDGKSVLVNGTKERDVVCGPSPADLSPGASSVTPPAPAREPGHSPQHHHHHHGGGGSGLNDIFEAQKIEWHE

Row | fold change of affinity | Binder
1 | 0 fold | dBBDu183H V100iQ / dBBDu072L (antibody, name in Kabat numbering, V domains shown) VH: QVQLVESGGGLVQPGRSLRLSCAASGFTFSNAWMHWVRQAPGKGLEWVAQIKDKGNAYAAYYAPSVKGRFTISRDDSKNSIYLQMNSLKTEDTAVYYCHYVHYASASTVLPAFGQDAWGQGTTVTVSS VL: DIVMTQSPLSLPVTPGEPASISCQASQELVHMNRNTYLHWYQQKPGQAPRLLIYKVSNRFPGVPDRFSGSGSGTDFTLKISRVEAEDVGVYYCAQGTSVPFTFGQGTKLEIK
2 | 0 fold | dBBDu183H A100S / dBBDu072L (antibody, name in Kabat numbering, V domains shown) VH: QVQLVESGGGLVQPGRSLRLSCAASGFTFSNAWMHWVRQAPGKGLEWVAQIKDKGNAYAAYYAPSVKGRFTISRDDSKNSIYLQMNSLKTEDTAVYYCHYVHYASSSTVLPAFGVDAWGQGTTVTVSS VL: DIVMTQSPLSLPVTPGEPASISCQASQELVHMNRNTYLHWYQQKPGQAPRLLIYKVSNRFPGVPDRFSGSGSGTDFTLKISRVEAEDVGVYYCAQGTSVPFTFGQGTKLEIK
3 | 0 fold | dBBDu183H Y97T / dBBDu072L (antibody, name in Kabat numbering, V domains shown) VH: QVQLVESGGGLVQPGRSLRLSCAASGFTFSNAWMHWVRQAPGKGLEWVAQIKDKGNAYAAYYAPSVKGRFTISRDDSKNSIYLQMNSLKTEDTAVYYCHYVHTASASTVLPAFGVDAWGQGTTVTVSS VL: DIVMTQSPLSLPVTPGEPASISCQASQELVHMNRNTYLHWYQQKPGQAPRLLIYKVSNRFPGVPDRFSGSGSGTDFTLKISRVEAEDVGVYYCAQGTSVPFTFGQGTKLEIK
4 | 0 fold | dBBDu183H G100hT / dBBDu072L (antibody, name in Kabat numbering, V domains shown) VH: QVQLVESGGGLVQPGRSLRLSCAASGFTFSNAWMHWVRQAPGKGLEWVAQIKDKGNAYAAYYAPSVKGRFTISRDDSKNSIYLQMNSLKTEDTAVYYCHYVHYASASTVLPAFTVDAWGQGTTVTVSS VL: DIVMTQSPLSLPVTPGEPASISCQASQELVHMNRNTYLHWYQQKPGQAPRLLIYKVSNRFPGVPDRFSGSGSGTDFTLKISRVEAEDVGVYYCAQGTSVPFTFGQGTKLEIK
5 | 0 fold | dBBDu183H S100aT / dBBDu072L (antibody, name in Kabat numbering, V domains shown) VH: QVQLVESGGGLVQPGRSLRLSCAASGFTFSNAWMHWVRQAPGKGLEWVAQIKDKGNAYAAYYAPSVKGRFTISRDDSKNSIYLQMNSLKTEDTAVYYCHYVHYASATTVLPAFGVDAWGQGTTVTVSS VL: DIVMTQSPLSLPVTPGEPASISCQASQELVHMNRNTYLHWYQQKPGQAPRLLIYKVSNRFPGVPDRFSGSGSGTDFTLKISRVEAEDVGVYYCAQGTSVPFTFGQGTKLEIK
6 | 0 fold | dBBDu183H H93T / dBBDu072L (antibody, name in Kabat numbering, V domains shown) VH: QVQLVESGGGLVQPGRSLRLSCAASGFTFSNAWMHWVRQAPGKGLEWVAQIKDKGNAYAAYYAPSVKGRFTISRDDSKNSIYLQMNSLKTEDTAVYYCTYVHYASASTVLPAFGVDAWGQGTTVTVSS VL: DIVMTQSPLSLPVTPGEPASISCQASQELVHMNRNTYLHWYQQKPGQAPRLLIYKVSNRFPGVPDRFSGSGSGTDFTLKISRVEAEDVGVYYCAQGTSVPFTFGQGTKLEIK
7 | 0 fold | dBBDu183H A102Q / dBBDu072L (antibody, name in Kabat numbering, V domains shown) VH: QVQLVESGGGLVQPGRSLRLSCAASGFTFSNAWMHWVRQAPGKGLEWVAQIKDKGNAYAAYYAPSVKGRFTISRDDSKNSIYLQMNSLKTEDTAVYYCHYVHYASASTVLPAFGVDQWGQGTTVTVSS VL: DIVMTQSPLSLPVTPGEPASISCQASQELVHMNRNTYLHWYQQKPGQAPRLLIYKVSNRFPGVPDRFSGSGSGTDFTLKISRVEAEDVGVYYCAQGTSVPFTFGQGTKLEIK
8 | 0 fold | dBBDu183H A102T / dBBDu072L (antibody, name in Kabat numbering, V domains shown) VH: QVQLVESGGGLVQPGRSLRLSCAASGFTFSNAWMHWVRQAPGKGLEWVAQIKDKGNAYAAYYAPSVKGRFTISRDDSKNSIYLQMNSLKTEDTAVYYCHYVHYASASTVLPAFGVDTWGQGTTVTVSS VL: DIVMTQSPLSLPVTPGEPASISCQASQELVHMNRNTYLHWYQQKPGQAPRLLIYKVSNRFPGVPDRFSGSGSGTDFTLKISRVEAEDVGVYYCAQGTSVPFTFGQGTKLEIK
9 | 0 fold | dBBDu183H V95T / dBBDu072L (antibody, name in Kabat numbering, V domains shown) VH: QVQLVESGGGLVQPGRSLRLSCAASGFTFSNAWMHWVRQAPGKGLEWVAQIKDKGNAYAAYYAPSVKGRFTISRDDSKNSIYLQMNSLKTEDTAVYYCHYTHYASASTVLPAFGVDAWGQGTTVTVSS VL: DIVMTQSPLSLPVTPGEPASISCQASQELVHMNRNTYLHWYQQKPGQAPRLLIYKVSNRFPGVPDRFSGSGSGTDFTLKISRVEAEDVGVYYCAQGTSVPFTFGQGTKLEIK
10 | 0 fold | dBBDu183H H93S / dBBDu072L (antibody, name in Kabat numbering, V domains shown) VH: QVQLVESGGGLVQPGRSLRLSCAASGFTFSNAWMHWVRQAPGKGLEWVAQIKDKGNAYAAYYAPSVKGRFTISRDDSKNSIYLQMNSLKTEDTAVYYCSYVHYASASTVLPAFGVDAWGQGTTVTVSS VL: DIVMTQSPLSLPVTPGEPASISCQASQELVHMNRNTYLHWYQQKPGQAPRLLIYKVSNRFPGVPDRFSGSGSGTDFTLKISRVEAEDVGVYYCAQGTSVPFTFGQGTKLEIK
11 | 0 fold | dBBDu183H L100dT / dBBDu072L (antibody, name in Kabat numbering, V domains shown) VH: QVQLVESGGGLVQPGRSLRLSCAASGFTFSNAWMHWVRQAPGKGLEWVAQIKDKGNAYAAYYAPSVKGRFTISRDDSKNSIYLQMNSLKTEDTAVYYCHYVHYASASTVTPAFGVDAWGQGTTVTVSS VL: DIVMTQSPLSLPVTPGEPASISCQASQELVHMNRNTYLHWYQQKPGQAPRLLIYKVSNRFPGVPDRFSGSGSGTDFTLKISRVEAEDVGVYYCAQGTSVPFTFGQGTKLEIK
12 | 0 fold | dBBDu183H G100hS / dBBDu072L (antibody, name in Kabat numbering, V domains shown) VH: QVQLVESGGGLVQPGRSLRLSCAASGFTFSNAWMHWVRQAPGKGLEWVAQIKDKGNAYAAYYAPSVKGRFTISRDDSKNSIYLQMNSLKTEDTAVYYCHYVHYASASTVLPAFSVDAWGQGTTVTVSS VL: DIVMTQSPLSLPVTPGEPASISCQASQELVHMNRNTYLHWYQQKPGQAPRLLIYKVSNRFPGVPDRFSGSGSGTDFTLKISRVEAEDVGVYYCAQGTSVPFTFGQGTKLEIK
13 | 0 fold | dBBDu183H V100iS / dBBDu072L (antibody, name in Kabat numbering, V domains shown) VH: QVQLVESGGGLVQPGRSLRLSCAASGFTFSNAWMHWVRQAPGKGLEWVAQIKDKGNAYAAYYAPSVKGRFTISRDDSKNSIYLQMNSLKTEDTAVYYCHYVHYASASTVLPAFGSDAWGQGTTVTVSS VL: DIVMTQSPLSLPVTPGEPASISCQASQELVHMNRNTYLHWYQQKPGQAPRLLIYKVSNRFPGVPDRFSGSGSGTDFTLKISRVEAEDVGVYYCAQGTSVPFTFGQGTKLEIK
14 | 0 fold | dBBDu183H V95S / dBBDu072L (antibody, name in Kabat numbering, V domains shown) VH: QVQLVESGGGLVQPGRSLRLSCAASGFTFSNAWMHWVRQAPGKGLEWVAQIKDKGNAYAAYYAPSVKGRFTISRDDSKNSIYLQMNSLKTEDTAVYYCHYSHYASASTVLPAFGVDAWGQGTTVTVSS VL: DIVMTQSPLSLPVTPGEPASISCQASQELVHMNRNTYLHWYQQKPGQAPRLLIYKVSNRFPGVPDRFSGSGSGTDFTLKISRVEAEDVGVYYCAQGTSVPFTFGQGTKLEIK
15 | 0 fold | dBBDu183H H96S / dBBDu072L (antibody, name in Kabat numbering, V domains shown) VH: QVQLVESGGGLVQPGRSLRLSCAASGFTFSNAWMHWVRQAPGKGLEWVAQIKDKGNAYAAYYAPSVKGRFTISRDDSKNSIYLQMNSLKTEDTAVYYCHYVSYASASTVLPAFGVDAWGQGTTVTVSS VL: DIVMTQSPLSLPVTPGEPASISCQASQELVHMNRNTYLHWYQQKPGQAPRLLIYKVSNRFPGVPDRFSGSGSGTDFTLKISRVEAEDVGVYYCAQGTSVPFTFGQGTKLEIK
16 | 0 fold | dBBDu183H A100fT / dBBDu072L (antibody, name in Kabat numbering, V domains shown) VH: QVQLVESGGGLVQPGRSLRLSCAASGFTFSNAWMHWVRQAPGKGLEWVAQIKDKGNAYAAYYAPSVKGRFTISRDDSKNSIYLQMNSLKTEDTAVYYCHYVHYASASTVLPTFGVDAWGQGTTVTVSS VL: DIVMTQSPLSLPVTPGEPASISCQASQELVHMNRNTYLHWYQQKPGQAPRLLIYKVSNRFPGVPDRFSGSGSGTDFTLKISRVEAEDVGVYYCAQGTSVPFTFGQGTKLEIK
17 | 0 fold | dBBDu183H H93D / dBBDu072L (antibody, name in Kabat numbering, V domains shown) VH: QVQLVESGGGLVQPGRSLRLSCAASGFTFSNAWMHWVRQAPGKGLEWVAQIKDKGNAYAAYYAPSVKGRFTISRDDSKNSIYLQMNSLKTEDTAVYYCDYVHYASASTVLPAFGVDAWGQGTTVTVSS VL: DIVMTQSPLSLPVTPGEPASISCQASQELVHMNRNTYLHWYQQKPGQAPRLLIYKVSNRFPGVPDRFSGSGSGTDFTLKISRVEAEDVGVYYCAQGTSVPFTFGQGTKLEIK
18 | 0 fold | dBBDu183H Y97S / dBBDu072L (antibody, name in Kabat numbering, V domains shown) VH: QVQLVESGGGLVQPGRSLRLSCAASGFTFSNAWMHWVRQAPGKGLEWVAQIKDKGNAYAAYYAPSVKGRFTISRDDSKNSIYLQMNSLKTEDTAVYYCHYVHSASASTVLPAFGVDAWGQGTTVTVSS VL: DIVMTQSPLSLPVTPGEPASISCQASQELVHMNRNTYLHWYQQKPGQAPRLLIYKVSNRFPGVPDRFSGSGSGTDFTLKISRVEAEDVGVYYCAQGTSVPFTFGQGTKLEIK
19 | 0 fold | dBBDu183H A100T / dBBDu072L (antibody, name in Kabat numbering, V domains shown) VH: QVQLVESGGGLVQPGRSLRLSCAASGFTFSNAWMHWVRQAPGKGLEWVAQIKDKGNAYAAYYAPSVKGRFTISRDDSKNSIYLQMNSLKTEDTAVYYCHYVHYASTSTVLPAFGVDAWGQGTTVTVSS VL: DIVMTQSPLSLPVTPGEPASISCQASQELVHMNRNTYLHWYQQKPGQAPRLLIYKVSNRFPGVPDRFSGSGSGTDFTLKISRVEAEDVGVYYCAQGTSVPFTFGQGTKLEIK
20 | 0 fold | dBBDu183H V95D / dBBDu072L (antibody, name in Kabat numbering, V domains shown) VH: QVQLVESGGGLVQPGRSLRLSCAASGFTFSNAWMHWVRQAPGKGLEWVAQIKDKGNAYAAYYAPSVKGRFTISRDDSKNSIYLQMNSLKTEDTAVYYCHYDHYASASTVLPAFGVDAWGQGTTVTVSS VL: DIVMTQSPLSLPVTPGEPASISCQASQELVHMNRNTYLHWYQQKPGQAPRLLIYKVSNRFPGVPDRFSGSGSGTDFTLKISRVEAEDVGVYYCAQGTSVPFTFGQGTKLEIK
21 | 0 fold | dBBDu183H A98T / dBBDu072L (antibody, name in Kabat numbering, V domains shown) VH: QVQLVESGGGLVQPGRSLRLSCAASGFTFSNAWMHWVRQAPGKGLEWVAQIKDKGNAYAAYYAPSVKGRFTISRDDSKNSIYLQMNSLKTEDTAVYYCHYVHYTSASTVLPAFGVDAWGQGTTVTVSS VL: DIVMTQSPLSLPVTPGEPASISCQASQELVHMNRNTYLHWYQQKPGQAPRLLIYKVSNRFPGVPDRFSGSGSGTDFTLKISRVEAEDVGVYYCAQGTSVPFTFGQGTKLEIK
